Reference: article PMC12077149 (mBio, 2025)

Target: the molecule itself
Assay: SEC; 24 mL Superdex-200, 150 mM NaCl, 50 mM Tris-HCl pH 8.0; MW estimated from a linear fit of MW standards

B1: 6×His-PqsE (wild type, P. aeruginosa) (enzyme)
chain: MLRLSAPGQLDDDLCLLGDVQVPVFLLRLGEASWALVEGGISRDAELVWADLCRWVADPSQVHYWLITHKHYDHCGLLPYLCPRLPNVQVLASERTCQAWKSESAVRVVERLNRQLLRAEQRLPEACAWDALPVRAVADGEWLELGPRHRLQVIEAHGHSDDHVVFYDVRRRRLFCGDALGEFDEAEGVWRPLVFDDMEAYLESLERLQRLPTLLQLIPGHGGLLRGRLAADGAESAYTECLRLCRRLLWRQSMGESLDELSEELHRAWGGQSVDFLPGELHLGSMRRMLEILSRQALPLD
notes: also called WT PqsE
- stoichiometry N: 2
